The values below come from publication PMC10570038.

pKd: −log10 of the molar value. “And” between values parts separate entries of the source, which are not always exact repeats. Equal values may be shown once.

Data set [1] concerns the target recombinant untagged rat RBPMS-A ΔC20 (rat). Kind of data set: cross-linking; glycerol gradients supplemented with a glutaraldehyde cross-linker (GraFix).
For data set [2] the target is unchanged. Kind of data set: AUC; sedimentation velocity, 40 000 rpm, 20°C, 20 mM HEPES, 1 mM TCEP, pH 7.9, 60 mM KCl; FL 0.7, 0.48, 0.24, 0.11 mg/ml; ΔC20 0.5 or 0.1 mg/ml; continuous c(s) model.
For data set [3] the target is unchanged. Briefly: AUC; sedimentation velocity, 40 000 rpm, 20°C, 20 mM HEPES, 1 mM TCEP, pH 7.9, 500 mM KCl; FL and ΔC20 at equal molar concentration (0.46 and 0.57 mg/ml); continuous c(s) model.
Data set [4] shares this target. Briefly: SEC; size exclusion chromatography of purified untagged recombinant protein; compared with size markers (443 kDa marker, void volume).
The target of the next data set is RBPMS-A FL (rat) (UniProt A0A8I6G705). Kind of data set: EMSA. The settings on record: no binding in 0-6 uM; EMSA: 10 nM RNA, 25 mM HEPES pH 7.9, 100 mM KCl, 2 mM MgCl2, 0.625 mM DTT, 0.1 mg/ml BSA, 5% glycerol, 30 C 1 h, then 5 mg/ml heparin 10 min; 5% native PAGE in …. (A gel shift assay detects complexes by their altered migration in electrophoresis.)

The term stoichiometry N denotes the number of molecules, sites or subunits per partner or assembly. Turning to “recombinant untagged rat RBPMS-A ΔC20 (domain or fragment)”, the stoichiometry N in data set [1] was 3 and 4; in data set [2] it was 2 and 3; in data set [3], 2; in data set [4], 2. Moreover, in data set [4], the percent eluting as dimer was 96%.
What is called pKd is the Kd on a negative log10 scale, so that one unit is a factor of ten. “GUCUACGCACCCUCAACCCGCACCUUGCGGGAUG [(CAC)2]”: the pKd with RBPMS-A FL (rat) is under 5.22.
